# Measurements taken from paper PMC7048182.
# Target: V5-tagged LvpIgR expressed in HEK293T cells (Litopenaeus vannamei)
substance,measurement,value
GST-tagged VP24 of WSSV (natural protein),"WSSV infection rate of HEK293T cells transfected with LvpIgR, FITC-labelled WSSV preincubated with rPEN2; control preincubated with rTrx: 49.08%",33.9%
